Measured values reported in publication PMC5309799.

What was measured:
[1] = biological target: RH5Nt (F1-K116), biotinylated SPR ligand (P. falciparum (3D7 strain)); test: SPR
[2] = biological target: Synthetic RH5Nt peptide (F1-K116 with an additional C-terminal cysteine) (P. falciparum); test: SPR
Basigin (Homo sapiens) = Basigin (Homo sapiens) (UniProt P35613); conditions: cited from earlier work
[3] = biological target: Basigin ectodomain, AVEXIS bait or prey and biotinylated SPR ligand (human) (UniProt P35613); test: SPR
[4] = biological target: P113 Y1-K197, biotinylated SPR ligand (P. falciparum (3D7 strain)); test: SPR
[5] = biological target: P113 Y1-N653, biotinylated SPR ligand (P. falciparum (3D7 strain)); test: SPR
[6] = biological target: P113 entire ectodomain, AVEXIS bait or prey and biotinylated SPR ligand (P. falciparum (3D7 strain)); test: SPR
[7] = biological target: purified P113 entire ectodomain (P113 EE) (P. falciparum (3D7 strain)); test: native gel or EMSA; fractions of the gel filtration peak resolved by native PAGE (Bis-Tris, 150 V) against denaturing SDS-PAGE
[8] = biological target: P113 entire ectodomain, AVEXIS bait and prey forms (P. falciparum (3D7 strain)); test: SPR

“P113 Y1-N653, purified SPR analyte (domain or fragment)” showed a Kd [1] of 5000 nM, a koff [1] of 1.54 s⁻¹ and a kon [1] of 304000 M⁻¹ s⁻¹. The Kd [2] was 5700 nM, the koff [2] was 1.24 s⁻¹ and the kon [2] was 216000 M⁻¹ s⁻¹.
In the case of RH5 (from UniProt Q8IFM5), the Kd (Basigin (Homo sapiens)) is given as 1000 nM.
For “RH5Ct (major processed form of RH5), purified monomeric SPR analyte (domain or fragment)”, the Kd [3] was 900 nM, the koff [3] was 0.293 s⁻¹ and the kon [3] was 342000 M⁻¹ s⁻¹.
“RH5FL, purified monomeric SPR analyte (from UniProt Q8IFM5 25-526) (natural protein)” showed a Kd [3] of 1300 nM, a Kd [4] of 1100 nM and a Kd [5] of 500 nM.
Work on “RH5Nt (N-terminal region of RH5, F1-K116), purified monomeric SPR analyte (domain or fragment)” yielded a Kd [6] of 2700 nM, a koff [6] of 0.793 s⁻¹ and a kon [6] of 300000 M⁻¹ s⁻¹.
Work on “purified P113 entire ectodomain (P113 EE) (natural protein)” yielded a stoichiometry N [7] of 4.
Work on “purified monomeric RH5Nt (F1-K116) (domain or fragment)” yielded a Kd [8] of 3000 nM.
Substance “purified monomeric full-length RH5 (RH5FL) (from UniProt Q8IFM5 25-526) (natural protein)” has a Kd [8] of 300 nM.
